B1: COVID19_P22_F04 (scFv, V domains shown)
VH: QVQLVQSGAEVKKPGSSVKVSCKASGGGFITYWIGWVRQAPGQGLEWMGIIYPGDGEARYSQKFQGRVTITADESTSTAYMELSSLRSEDTAVYYCAGGSGISTPMDVWGQGTLVTVSS
VL: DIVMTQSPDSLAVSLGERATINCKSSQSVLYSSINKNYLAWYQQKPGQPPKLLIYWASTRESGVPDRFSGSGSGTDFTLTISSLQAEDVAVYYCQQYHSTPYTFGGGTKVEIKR
B2: COVID19_P21_A08 (scFv, V domains shown)
VH: QVQLVQSGAEVKKPGSSVKVSCKASGGTFITYWIGWVRQAPGQGLEWMGWINPNSGGTNYAQKFQGRVTITADESTSTAYMELSSLRSEDTAVYYCAGGSGISTPMDVWGQGTLVTVSS
VL: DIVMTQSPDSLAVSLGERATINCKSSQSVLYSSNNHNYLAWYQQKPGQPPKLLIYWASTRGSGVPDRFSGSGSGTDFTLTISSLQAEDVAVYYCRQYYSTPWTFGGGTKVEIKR
B3: COVID19_P22_F11 (scFv, V domains shown)
VH: QVQLVQSGAEVKKPGSSVKVSCKASGGGFITYWISWVRQAPGQGLEWMGIIYPGDGEARYSQKFQGRVTITADESTSTAYMELSSLRSEDTAVYYCAGGSGIIQPMDVWGQGTLVTVSS
VL: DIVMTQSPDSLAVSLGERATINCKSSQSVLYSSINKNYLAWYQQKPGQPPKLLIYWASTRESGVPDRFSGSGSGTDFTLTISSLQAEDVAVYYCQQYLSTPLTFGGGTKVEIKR
B4: COVID19_P21_B01 (scFv, V domains shown)
VH: QVQLVQSGAEVKKPGSSVKVSCKASGYTFSTYWIGWVRQAPGQGLEWMGWIDPNSGGTNYAQKFQGRVTITADESTSTAYMELSSLRSEDTAVYYCAGGSGISTPMDVWGQGTLVTVSS
VL: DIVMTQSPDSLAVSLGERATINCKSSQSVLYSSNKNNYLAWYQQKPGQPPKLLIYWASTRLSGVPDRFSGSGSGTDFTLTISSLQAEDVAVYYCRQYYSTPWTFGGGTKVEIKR
B5: COVID19_P09_D06 (scFv, V domains shown)
VH: QVQLVQSGAEVKKPGSSVKVSCKASGYGFITYWIGWVRQAPGQGLEWMGIIYPGDSETRYAQKFQGRVTITADESTSTAYMELSSLRSEDTAVYYCAGGSGIYVPMDVWGQGTLVTVSS
VL: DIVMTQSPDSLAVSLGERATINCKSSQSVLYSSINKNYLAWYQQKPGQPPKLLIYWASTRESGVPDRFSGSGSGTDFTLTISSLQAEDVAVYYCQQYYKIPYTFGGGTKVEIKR
B6: COVID19_P10_G03 (scFv, V domains shown)
VH: QVQLVQSGAEVKKPGSSVKVSCKASGGTFSNSSINWVRQAPGQGLEWMGRINPNSGGTNYAQKFQGRVTITADESTSTAYMELSSLRSEDTAVYYCAGGSGISTPMDVWGQGTLVTVSS
VL: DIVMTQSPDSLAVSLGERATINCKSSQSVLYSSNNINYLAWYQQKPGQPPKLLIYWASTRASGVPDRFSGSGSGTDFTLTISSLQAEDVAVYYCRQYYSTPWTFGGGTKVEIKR
B7: COVID19_P22_E06 (scFv, V domains shown)
VH: QVQLVQSGAEVKKPGSSVKVSCKASGGGFITYWIGWVRQAPGQGLEWMGIIYPGDSETRYSQKFQGRVTITADESTSTAYMELSSLRSEDTAVYYCAGGSGISSDMDVWGQGTLVTVSS
VL: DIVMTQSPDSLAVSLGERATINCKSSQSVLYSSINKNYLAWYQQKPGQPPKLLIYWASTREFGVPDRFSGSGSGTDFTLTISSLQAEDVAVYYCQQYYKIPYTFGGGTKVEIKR
B8: COVID19_P22_G12 (scFv, V domains shown)
VH: QVQLVQSGAEVKKPGSSVKVSCKASGGGFITYWIGWVRQAPGQGLEWMGIIYPGDSETRYSQKFQGRVTITADESTSTAYMELSSLRSEDTAVYYCAGGSGISTPMDVWGQGTLVTVSS
VL: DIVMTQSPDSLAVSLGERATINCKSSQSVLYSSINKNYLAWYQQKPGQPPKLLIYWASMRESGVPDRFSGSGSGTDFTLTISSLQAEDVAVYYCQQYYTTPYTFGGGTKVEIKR
B9: COVID19_P10_C05 (scFv, V domains shown)
VH: QVQLVQSGAEVKKPGSSVKVSCKASGGTFITYWIGWVRQAPGQGLEWMGIIYPGDGEARYSQKFQGRVTITADESTSTAYMELSSLRSEDTAVYYCAGSGGISTPMDVWGQGTLVTVSS
VL: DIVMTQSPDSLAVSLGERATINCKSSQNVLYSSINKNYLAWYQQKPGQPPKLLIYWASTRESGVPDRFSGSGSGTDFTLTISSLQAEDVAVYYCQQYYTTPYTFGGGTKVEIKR
B10: COVID19_P09_H09 (scFv, V domains shown)
VH: QVQLVQSGAEVKKPGSSVKVSCKASGGTFITYWIYWVRQAPGQGLEWMGIIYPGDGEARYSQKFYGRVTITADESTSTAYMELSSLRSEDTAVYYCAGSGGISTPMDVWGQGTLVTVSS
VL: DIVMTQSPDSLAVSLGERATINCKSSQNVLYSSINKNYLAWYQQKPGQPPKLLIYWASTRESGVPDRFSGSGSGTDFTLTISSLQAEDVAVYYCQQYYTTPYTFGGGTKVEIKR
B11: COVID19_P09_C05 (scFv, V domains shown)
VH: QVQLVQSGAEVKKPGSSVKVSCKASGYSFSDYYIHWVRQAPGQGLEWMGWIDPNSGGTNYAQKFQGRVTITADESTSTAYMELSSLRSEDTAVYYCAGGSGISTPMDVWGQGTLVTVSS
VL: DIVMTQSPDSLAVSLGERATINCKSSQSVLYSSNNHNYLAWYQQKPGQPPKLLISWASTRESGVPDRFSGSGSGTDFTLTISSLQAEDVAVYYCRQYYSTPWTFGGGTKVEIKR
B12: COVID19_P10_D08 (scFv, V domains shown)
VH: QVQLVQSGAEVKKPGSSVKVSCKASGGTFNSHAISWVRQAPGQGLEWMGWINPNSGATNYAQKFQGRVTITADESTSTAYMELSSLRSEDTAVYYCAGGSGISTPVGVWGQGTLVTVSS
VL: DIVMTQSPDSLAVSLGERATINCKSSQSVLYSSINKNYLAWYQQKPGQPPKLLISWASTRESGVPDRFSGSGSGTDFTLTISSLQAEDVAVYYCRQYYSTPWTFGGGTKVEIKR
B13: COVID19_P22_B04 (scFv, V domains shown)
VH: QVQLVQSGAEVKKPGSSVKVSCKASGYGFITYWIGWVRQAPGQGLEWMGIIYPGDSETRYAQKFQGRVTITADESTSTAYMELSSLRSEDTAVYYCAGGEGISTPMDVWGQGTLVTVSS
VL: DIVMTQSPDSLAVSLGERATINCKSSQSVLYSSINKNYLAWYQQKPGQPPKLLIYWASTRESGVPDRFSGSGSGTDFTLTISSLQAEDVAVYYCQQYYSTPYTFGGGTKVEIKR
B14: COVID19_P21_H03 (scFv, V domains shown)
VH: QVQLVQSGAEVKKPGSSVKVSCKASGYTFTNYGINWVRQAPGQGLEWMGWMNPYSGNTGYAQKFQGRVTITADESTSTAYMELSSLRSEDTAVYYCAVLSGISTPMDVWGQGTLVTVSS
VL: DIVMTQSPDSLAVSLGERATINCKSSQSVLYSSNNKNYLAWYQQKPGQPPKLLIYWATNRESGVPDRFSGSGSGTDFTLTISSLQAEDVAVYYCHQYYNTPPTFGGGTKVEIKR
B15: COVID19_P09_G12 (scFv, V domains shown)
VH: QVQLVQSGAEVKKPGSSVKVSCKASGYPFTNYGISWVRQAPGQGLEWMGWMNPNSGNTGYAQKFQGRVTITADESTSTAYMELSSLRSEDTAVYYCATLSGISTPMDVWGQGTLVTVSS
VL: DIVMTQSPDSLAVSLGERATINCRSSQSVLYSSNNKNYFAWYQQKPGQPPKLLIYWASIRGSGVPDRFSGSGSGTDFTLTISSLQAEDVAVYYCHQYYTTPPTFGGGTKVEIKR
B16: COVID19_P21_B02 (scFv, V domains shown)
VH: QVQLVQSGAEVKKPGSSVKVSCKASGYTFTNYGINWVRQAPGQGLEWMGWMNPNSGNTGYAQKFQGRVTITADESTSTAYMELSSLRSEDTAVYYCAAVSGISTPMDVWGQGTLVTVSS
VL: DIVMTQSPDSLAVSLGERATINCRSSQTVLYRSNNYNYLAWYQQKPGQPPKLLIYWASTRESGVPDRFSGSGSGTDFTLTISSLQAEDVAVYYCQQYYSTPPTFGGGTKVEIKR
B17: COVID19_P21_E04 (scFv, V domains shown)
VH: QVQLVQSGAEVKKPGSSVKVSCKASGYTFTNYGINWMRQAPGQGLEWMGWMNPNSGNTGYAQKFQGRVTITADESTSTAYMELSSLRSEDTAVYYCAGGSGISTPMDVWGQGTLVTVSS
VL: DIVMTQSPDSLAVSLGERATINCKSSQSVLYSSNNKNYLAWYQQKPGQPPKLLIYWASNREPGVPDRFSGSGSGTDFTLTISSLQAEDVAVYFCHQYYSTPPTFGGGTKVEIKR
B18: COVID19_P09_B09 (scFv, V domains shown)
VH: QVQLVQSGAEVKKPGSSVKVSCKASGYRFTDYHLHWVRQAPGQGLEWMGGIVPFSGTTNFAQKFQGRVTITADESTSTAYMELSSLRSEDTAVYYCAGGSGETTPMDVWGQGTLVTVSS
VL: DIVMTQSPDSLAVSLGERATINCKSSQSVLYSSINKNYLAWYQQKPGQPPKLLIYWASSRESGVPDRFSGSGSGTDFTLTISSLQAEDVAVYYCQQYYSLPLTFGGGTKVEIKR
B19: COVID19_P22_C09 (scFv, V domains shown)
VH: QVQLVQSGAEVKKPGSSVKVSCKASGYNFTDYHIQWVRQAPGQGLEWVGMIIPRHGGTAYAQRFQGRVTITADESTSTAYMELSSLRSEDTAVYYCAGGSGLTTPMDVWGQGTLVTVSS
VL: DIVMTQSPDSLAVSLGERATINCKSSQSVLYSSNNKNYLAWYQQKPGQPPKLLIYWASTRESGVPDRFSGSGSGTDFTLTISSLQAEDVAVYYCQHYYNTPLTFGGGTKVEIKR
B20: COVID19_P10_B10 (scFv, V domains shown)
VH: QVQLVQSGAEVKKPGSSVKVSCKASGYSFSDYHVHWVRQAPGQGLEWVGMIIPRHGGTAYAQKFQGRVTITADESTSTAYMELSSLRSEDTAVYYCAGGSGISTPMDVWGQGTLVTVSS
VL: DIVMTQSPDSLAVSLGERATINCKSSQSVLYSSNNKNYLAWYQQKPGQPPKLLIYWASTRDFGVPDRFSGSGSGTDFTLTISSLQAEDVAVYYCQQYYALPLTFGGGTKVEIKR

Experiments:
[1] = molecular target: T1, SARS-CoV-1 Receptor Binding Domain (RBD) protein (SARS-CoV-1, UniProt P59594 306-527); assay: SPR Carterra LSA, scFv captured via anti-V5
T1 construct: also called SARS1

[2] = molecular target: T2, MERS Receptor Binding Domain (RBD) protein (Middle East Respiratory Syndrome (MERS) …, UniProt K9N5Q8 367-606); assay: SPR Carterra LSA, scFv captured via anti-V5
T2 construct: also called Middle East Respiratory Syndrome (MERS) virus
T2 sequence: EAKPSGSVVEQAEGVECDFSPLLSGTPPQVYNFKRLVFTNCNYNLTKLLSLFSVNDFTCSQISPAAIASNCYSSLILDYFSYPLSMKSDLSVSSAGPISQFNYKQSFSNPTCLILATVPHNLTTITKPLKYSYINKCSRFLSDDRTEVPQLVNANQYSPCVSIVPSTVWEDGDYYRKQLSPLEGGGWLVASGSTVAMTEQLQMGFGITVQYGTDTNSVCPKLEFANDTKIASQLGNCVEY

| Binder | binding result [1] | binding result [2] |
| --- | --- | --- |
| B1 | no binding (tested: 300 nM) | no binding (tested: 300 nM) |
| B2 | no binding (tested: 300 nM) | no binding (tested: 300 nM) |
| B3 | no binding (tested: 300 nM) | no binding (tested: 300 nM) |
| B4 | no binding (tested: 300 nM) | no binding (tested: 300 nM) |
| B5 | no binding (tested: 300 nM) | no binding (tested: 300 nM) |
| B6 | no binding (tested: 300 nM) | no binding (tested: 300 nM) |
| B7 | no binding (tested: 300 nM) | no binding (tested: 300 nM) |
| B8 | no binding (tested: 300 nM) | no binding (tested: 300 nM) |
| B9 | no binding (tested: 300 nM) | no binding (tested: 300 nM) |
| B10 | no binding (tested: 300 nM) | no binding (tested: 300 nM) |
| B11 | no binding (tested: 300 nM) | no binding (tested: 300 nM) |
| B12 | no binding (tested: 300 nM) | no binding (tested: 300 nM) |
| B13 | no binding (tested: 300 nM) | no binding (tested: 300 nM) |
| B14 | no binding (tested: 300 nM) | no binding (tested: 300 nM) |
| B15 | no binding (tested: 300 nM) | no binding (tested: 300 nM) |
| B16 | no binding (tested: 300 nM) | no binding (tested: 300 nM) |
| B17 | no binding (tested: 300 nM) | no binding (tested: 300 nM) |
| B18 | no binding (tested: 300 nM) | no binding (tested: 300 nM) |
| B19 | no binding (tested: 300 nM) | no binding (tested: 300 nM) |
| B20 | no binding (tested: 300 nM) | no binding (tested: 300 nM) |

From patent US20240270825A1 (CENTIVAX, published 2024)
